# From article PMC3310817, “Liver X Receptors Regulate the Transcriptional Activity of the Glucocorticoid Receptor: Implications for the Carbohydrate Metabolism”
# B1: G6Pase GRE wt (dsDNA)
# DNA 1: GCACTGTCAAGCAGTGTGCCCAAGTTAATAATT
# DNA 2: AATTATTAACTTGGGCACACTGCTTGACAGTGC
# B2: Classic GRE wt (dsDNA)
# DNA 1: AGCTGGTACAAACTGTTCTAGCT
# DNA 2: AGCTAGAACAGTTTGTACCAGCT
# How the values were obtained:
# [1] = biological target: T1, LXRα (recombinant, Active Motif);RXRα (recombinant, Active Motif) (Homo sapiens;Homo sapiens, UniProt Q13133;P19793 1-447;1-462, |); assay: EMSA; complex C; EMSA: 10 mM HEPES pH 8.0, 0.1 mM EDTA, 2 mM DTT, 50 mM NaCl, 5 mM MgCl2, 50 mM KCl, 4 mM spermidine, 4% Ficoll, 1 ug poly(dI-dC); preincubation 10 min 4 C, then 15 min room temperature with probe; conditions: protein: commercial;commercial; tags: ;; copies: 1;1; label: 32P; blunt
# [2] = biological target: T1, LXRα (recombinant, Active Motif);RXRα …; assay: EMSA; GW3965 (enhances binding); EMSA: 10 mM HEPES pH 8.0, 0.1 mM EDTA, 2 mM DTT, 50 mM NaCl, 5 mM MgCl2, 50 mM KCl, 4 mM spermidine, 4% Ficoll, 1 ug poly(dI-dC); preincubation 10 min 4 C, then 15 min room temperature with probe; conditions: protein: commercial;commercial; tags: ;; copies: 1;1; label: 32P; blunt
# T1 sequence (Q13133 whole entry, chain 1 of 2): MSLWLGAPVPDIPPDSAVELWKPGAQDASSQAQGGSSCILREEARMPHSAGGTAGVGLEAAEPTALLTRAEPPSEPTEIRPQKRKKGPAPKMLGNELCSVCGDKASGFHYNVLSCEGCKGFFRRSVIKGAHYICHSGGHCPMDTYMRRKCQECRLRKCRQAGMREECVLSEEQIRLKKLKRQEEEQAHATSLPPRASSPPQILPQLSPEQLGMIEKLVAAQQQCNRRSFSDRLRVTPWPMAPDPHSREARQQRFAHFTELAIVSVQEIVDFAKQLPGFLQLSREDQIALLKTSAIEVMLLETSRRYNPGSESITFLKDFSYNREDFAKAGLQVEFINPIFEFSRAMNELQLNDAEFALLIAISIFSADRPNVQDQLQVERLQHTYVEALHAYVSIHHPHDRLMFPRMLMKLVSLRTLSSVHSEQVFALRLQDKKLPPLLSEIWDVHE
# T1 sequence (P19793 whole entry, chain 2 of 2): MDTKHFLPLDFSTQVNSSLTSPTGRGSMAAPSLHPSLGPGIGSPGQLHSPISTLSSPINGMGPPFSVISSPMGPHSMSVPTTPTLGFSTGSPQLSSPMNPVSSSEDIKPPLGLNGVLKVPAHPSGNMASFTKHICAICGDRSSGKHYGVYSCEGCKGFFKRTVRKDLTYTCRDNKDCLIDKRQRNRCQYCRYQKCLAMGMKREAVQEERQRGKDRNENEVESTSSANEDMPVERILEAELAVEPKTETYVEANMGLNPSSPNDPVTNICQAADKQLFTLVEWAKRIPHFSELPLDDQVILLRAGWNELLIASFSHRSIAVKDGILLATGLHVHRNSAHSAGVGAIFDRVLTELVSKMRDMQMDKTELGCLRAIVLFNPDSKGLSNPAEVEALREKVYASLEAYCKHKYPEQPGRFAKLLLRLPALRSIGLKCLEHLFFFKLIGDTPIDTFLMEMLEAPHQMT
Binder,binding result [1],binding result [2]
B1,binds,
B2,,binds
